The chains are these.
B1: glmS ribozyme (parent)
chain: AUAAAAGCGCCAGAACUACAGAAAUGUAGUUGACGAGGAGGAGGUUUAUCGAAUUUUCGGCGGAUGCCUCCAAA

What all share (details): with glucosamine-6-phosphate
Variants of B1 are the subject of series [1]. Kind of series: self-cleavage kobs at 40 uM GlcN6P; higher = faster cleavage; RNA array. The essentials:
(§1)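 Tiles bearing barcoded ribozyme variants, transcribed in situ by E. coli RNA polymerase on sequenced MiSeq chips, were imaged over ~14 h at 37 °C using a hybridised Cy3 probe. Glucosamine-6-phosphate was supplied at 40 μM to 10 mM in HEPES/KCl/Mg(OAc)2 buffer. kobs came from one- or two-exponential decay fits to normalised per-tile medians, and weighted Michaelis–Menten fits then provided kcat and KM.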

The variants in series [2] derive from B1. Nature of the series: self-cleavage kobs at 160 uM GlcN6P; higher = faster cleavage; RNA array. The gist of the method:
as §1

The variants in series [3] derive from B1. Nature of the series: self-cleavage kobs at 640 uM GlcN6P; higher = faster cleavage; RNA array. The essentials:
as §1

Series [4] covers variants of B1. Kind of series: self-cleavage kobs at 2500 uM GlcN6P; higher = faster cleavage; RNA array. The gist of the method:
as §1

The variants in series [5] derive from B1. Nature of the series: self-cleavage kobs at 10000 uM GlcN6P; higher = faster cleavage; RNA array. The gist of the method:
as §1

± gives the standard error. Variants at the floor of the assay were thinned out.

Results on 23 variants are retold here after the supplement of paper PMC7125110.

In the case of C16U G38A, the “self-cleavage kobs at 40 uM GlcN6P” value in series [1] is below 1e-05 s⁻¹. The “self-cleavage kobs at 160 uM GlcN6P” value in series [2] was below 1e-05 s⁻¹. Also, the “self-cleavage kobs at 640 uM GlcN6P” value in series [3] was below 1e-05 s⁻¹. In series [4], the “self-cleavage kobs at 2500 uM GlcN6P” value was below 1e-05 s⁻¹.
With G13C A36G G63C, in series [2], the “self-cleavage kobs at 160 uM GlcN6P” value is below 1e-05 s⁻¹. In series [3], the “self-cleavage kobs at 640 uM GlcN6P” value was below 1e-05 s⁻¹.
Take G32U G38C U55A: the “self-cleavage kobs at 40 uM GlcN6P” value in series [1] was below 1e-05 s⁻¹. Further, the “self-cleavage kobs at 640 uM GlcN6P” value in series [3] was below 1e-05 s⁻¹. Moreover, the “self-cleavage kobs at 10000 uM GlcN6P” value in series [5] is below 1e-05 s⁻¹.
With A14U G43A G63U C68U, in series [2], the “self-cleavage kobs at 160 uM GlcN6P” value was below 1e-05 s⁻¹. The “self-cleavage kobs at 2500 uM GlcN6P” value in series [4] is below 1e-05 s⁻¹.
Consider G7U A42U, for which the “self-cleavage kobs at 40 uM GlcN6P” value in series [1] is below 1e-05 s⁻¹. Besides, the “self-cleavage kobs at 640 uM GlcN6P” value in series [3] was below 1e-05 s⁻¹. For the same variant, in series [4], the “self-cleavage kobs at 2500 uM GlcN6P” value was below 1e-05 s⁻¹. Moreover, the “self-cleavage kobs at 10000 uM GlcN6P” value in series [5] is below 1e-05 s⁻¹.
A15C C50G: in series [2], the “self-cleavage kobs at 160 uM GlcN6P” value was determined as 0.000107 ± 3.2e-05 s⁻¹. For the same variant, the “self-cleavage kobs at 2500 uM GlcN6P” value in series [4] worked out at 0.000205 ± 5.8e-05 s⁻¹.
For A12C G40C C61G, in series [2], the “self-cleavage kobs at 160 uM GlcN6P” value was below 1e-05 s⁻¹. In addition, the “self-cleavage kobs at 640 uM GlcN6P” value in series [3] is below 1e-05 s⁻¹. Also, the “self-cleavage kobs at 2500 uM GlcN6P” value in series [4] was below 1e-05 s⁻¹. In addition, the “self-cleavage kobs at 10000 uM GlcN6P” value in series [5] was below 1e-05 s⁻¹.
G51U G63U A64C: in series [1], the “self-cleavage kobs at 40 uM GlcN6P” value was below 1e-05 s⁻¹. In addition, in series [4], the “self-cleavage kobs at 2500 uM GlcN6P” value is below 1e-05 s⁻¹.
A14U U47C U49A: the “self-cleavage kobs at 160 uM GlcN6P” value in series [2] is below 1e-05 s⁻¹.
For A18G C70A, the “self-cleavage kobs at 40 uM GlcN6P” value in series [1] amounted to 4.53e-05 ± 2.1e-05 s⁻¹. Besides, the “self-cleavage kobs at 10000 uM GlcN6P” value in series [5] came to 0.000432 ± 0.00014 s⁻¹.
Turning to U57A G59U, in series [1], the “self-cleavage kobs at 40 uM GlcN6P” value is below 1e-05 s⁻¹. In series [2], the “self-cleavage kobs at 160 uM GlcN6P” value is below 1e-05 s⁻¹. For the same variant, in series [3], the “self-cleavage kobs at 640 uM GlcN6P” value was below 1e-05 s⁻¹. The “self-cleavage kobs at 10000 uM GlcN6P” value in series [5] is below 1e-05 s⁻¹.
For C11A G66C, the “self-cleavage kobs at 40 uM GlcN6P” value in series [1] is below 1e-05 s⁻¹. Besides, the “self-cleavage kobs at 2500 uM GlcN6P” value in series [4] was below 1e-05 s⁻¹.
G38U C58U: in series [1], the “self-cleavage kobs at 40 uM GlcN6P” value was below 1e-05 s⁻¹. Further, in series [4], the “self-cleavage kobs at 2500 uM GlcN6P” value is below 1e-05 s⁻¹. Also, the “self-cleavage kobs at 10000 uM GlcN6P” value in series [5] was below 1e-05 s⁻¹.
Take G9U U31G G32C G62A: the “self-cleavage kobs at 40 uM GlcN6P” value in series [1] is below 1e-05 s⁻¹.
Regarding G29U A48C G59A, the “self-cleavage kobs at 160 uM GlcN6P” value in series [2] was below 1e-05 s⁻¹. Moreover, the “self-cleavage kobs at 640 uM GlcN6P” value in series [3] is below 1e-05 s⁻¹. In series [4], the “self-cleavage kobs at 2500 uM GlcN6P” value is below 1e-05 s⁻¹. Also, the “self-cleavage kobs at 10000 uM GlcN6P” value in series [5] is below 1e-05 s⁻¹.
In the case of A6U G43A, the “self-cleavage kobs at 40 uM GlcN6P” value in series [1] is below 1e-05 s⁻¹. Besides, the “self-cleavage kobs at 160 uM GlcN6P” value in series [2] was below 1e-05 s⁻¹. Also, in series [5], the “self-cleavage kobs at 10000 uM GlcN6P” value was below 1e-05 s⁻¹.
A15U G37U: the “self-cleavage kobs at 160 uM GlcN6P” value in series [2] was below 1e-05 s⁻¹. For the same variant, the “self-cleavage kobs at 10000 uM GlcN6P” value in series [5] was below 1e-05 s⁻¹.
As for C8A A48C, the “self-cleavage kobs at 40 uM GlcN6P” value in series [1] was below 1e-05 s⁻¹. The “self-cleavage kobs at 160 uM GlcN6P” value in series [2] was below 1e-05 s⁻¹. In addition, in series [3], the “self-cleavage kobs at 640 uM GlcN6P” value was below 1e-05 s⁻¹. Further, in series [4], the “self-cleavage kobs at 2500 uM GlcN6P” value was below 1e-05 s⁻¹. Moreover, in series [5], the “self-cleavage kobs at 10000 uM GlcN6P” value was below 1e-05 s⁻¹.
Regarding C58U G60U, the “self-cleavage kobs at 40 uM GlcN6P” value in series [1] is below 1e-05 s⁻¹. In addition, the “self-cleavage kobs at 640 uM GlcN6P” value in series [3] was below 1e-05 s⁻¹. Moreover, the “self-cleavage kobs at 2500 uM GlcN6P” value in series [4] is below 1e-05 s⁻¹. Besides, in series [5], the “self-cleavage kobs at 10000 uM GlcN6P” value is below 1e-05 s⁻¹.
Take C10A A33U: the “self-cleavage kobs at 40 uM GlcN6P” value in series [1] is below 1e-05 s⁻¹. The “self-cleavage kobs at 10000 uM GlcN6P” value in series [5] is below 1e-05 s⁻¹.
For the variant U47G C67U, in series [1], the “self-cleavage kobs at 40 uM GlcN6P” value is 0.000141 ± 2.6e-05 s⁻¹. The “self-cleavage kobs at 160 uM GlcN6P” value in series [2] is 0.000305 ± 5.6e-05 s⁻¹. The “self-cleavage kobs at 640 uM GlcN6P” value in series [3] was 0.00064 ± 8.6e-05 s⁻¹. Further, the “self-cleavage kobs at 2500 uM GlcN6P” value in series [4] was 0.00125 ± 0.0002 s⁻¹. Further, in series [5], the “self-cleavage kobs at 10000 uM GlcN6P” value is 0.00343 ± 0.00067 s⁻¹.
In the case of U47C A48G C50G C70G, the “self-cleavage kobs at 40 uM GlcN6P” value in series [1] is 3.16e-05 ± 1.6e-05 s⁻¹.
Turning to C61G G63A, the “self-cleavage kobs at 40 uM GlcN6P” value in series [1] is below 1e-05 s⁻¹. For the same variant, the “self-cleavage kobs at 160 uM GlcN6P” value in series [2] is below 1e-05 s⁻¹. The “self-cleavage kobs at 10000 uM GlcN6P” value in series [5] is below 1e-05 s⁻¹.
